Test results reported in the Immune Epitope Database (IEDB).
Blank lines part the entries; values can stand above or below the sequence they belong to.

Assays:
HLA-A*02:02 = experiment: IEDB peptide-MHC binding, purified MHC/competitive/radioactivity; filed as Kd, often an IC50 or EC50 that approximates it; ≥ and ≤ were set here for values at or beyond the usual limits of such assays; details: source organism: Human immunodeficiency virus type 1 (CLONE 12)
HLA-A*02:19 = experiment: IEDB peptide-MHC binding, purified MHC/competitive/fluorescence; filed as Kd, often an IC50 or EC50 that approximates it; ≥ and ≤ were set here for values at or beyond the usual limits of such assays
HLA-A*69:01 [1] = experiment: as above
HLA-A*02:12 = experiment: as above
HLA-B*39:01 = experiment: as above
HLA-A*02:01 [2] = experiment: as above
HLA-A*02:11 [3] = experiment: as above
HLA-A*02:16 = experiment: as above
HLA-C*15:02 = experiment: IEDB peptide-MHC binding, purified MHC/direct/fluorescence; filed as Kd, often an IC50 or EC50 that approximates it; ≥ and ≤ were set here for values at or beyond the usual limits of such assays
HLA-B*15:01 [4] = experiment: IEDB peptide-MHC binding, purified MHC/competitive/fluorescence; filed as Kd, often an IC50 or EC50 that approximates it; ≥ and ≤ were set here for values at or beyond the usual limits of such assays
HLA-B*27:03 = experiment: as above
HLA-A*02:03 = experiment: as above
HLA-A*68:02 [5] = experiment: as above
HLA-B*46:01 [6] = experiment: as above
HLA-B*57:01 [7] = experiment: as above
HLA-A*26:01 = experiment: as above
HLA-A*03:01 [8] = experiment: as above
HLA-B*15:17 = experiment: IEDB peptide-MHC binding, purified MHC/direct/fluorescence; filed as Kd, often an IC50 or EC50 that approximates it; ≥ and ≤ were set here for values at or beyond the usual limits of such assays
HLA-B*57:01 [9] = experiment: as above
HLA-A*11:01 [10] = experiment: IEDB peptide-MHC binding, purified MHC/competitive/fluorescence; ≥ and ≤ were set here for values at or beyond the usual limits of such assays
HLA-B*15:01 [11] = experiment: as above
HLA-A*02:01 [12] = experiment: as above
HLA-A*03:01 [13] = experiment: as above
HLA-A*24:03 = experiment: IEDB peptide-MHC binding, purified MHC/competitive/fluorescence; filed as Kd, often an IC50 or EC50 that approximates it; ≥ and ≤ were set here for values at or beyond the usual limits of such assays; details: source organism: Listeria monocytogenes serotype 4b str. H7858
HLA-B*51:01 = experiment: as above; details: source organism: Listeria monocytogenes serotype 4b str. H7858
HLA-B*18:01 [14] = experiment: as above; details: source organism: Listeria monocytogenes serotype 4b str. H7858
HLA-B*15:01 [15] = experiment: IEDB peptide-MHC binding, purified MHC/direct/fluorescence; filed as Kd, often an IC50 or EC50 that approximates it; ≥ and ≤ were set here for values at or beyond the usual limits of such assays
HLA-B*58:01 = experiment: as above
HLA-A*69:01 [16] = experiment: as above; details: source organism: Mycobacterium tuberculosis
HLA-A*02:11 [17] = experiment: as above; details: source organism: Mycobacterium tuberculosis str. Haarlem
HLA-B*07:02 = experiment: as above; details: source organism: Escherichia coli O157:H7
HLA-A*11:01 [18] = experiment: as above; details: source organism: Escherichia coli O157:H7
HLA-A*31:01 = experiment: as above; details: source organism: Escherichia coli O157:H7
HLA-A*02:01 [19] = experiment: as above; details: source organism: Escherichia coli O157:H7
HLA-A*68:02 [20] = experiment: as above; details: source organism: Escherichia coli O157:H7
HLA-B*18:01 [21] = experiment: as above; details: source organism: Escherichia coli O157:H7
HLA-B*48:01 = experiment: as above; details: source organism: Escherichia coli O157:H7
HLA-B*40:01 = experiment: as above; details: source organism: Escherichia coli O157:H7
HLA-B*46:01 [22] = experiment: as above; details: source organism: Escherichia coli O157:H7
HLA-B*27:05 = experiment: as above; details: source organism: Escherichia coli O157:H7
HLA-A*01:01 = experiment: as above; details: source organism: Escherichia coli O157:H7
HLA-A*03:01 [23] = experiment: as above; details: source organism: Escherichia coli O157:H7
[24] = source organism: Human immunodeficiency virus 1
[25] = source organism: Vibrio vulnificus YJ016
[26] = source organism: dengue virus type 3
[27] = source organism: Vaccinia virus WR
[28] = source organism: Zaire ebolavirus
[29] = source organism: Listeria monocytogenes serotype 4b str. H7858
[30] = source organism: Yersinia pestis
[31] = source organism: Sudan ebolavirus
[32] = source organism: Escherichia coli O157:H7

Sequence: AIIRILQQL
Kd (HLA-A*02:02): 0.374 µM
Kd (HLA-A*02:19; [24]): 0.116 µM
Kd (HLA-A*69:01 [1]; [24]): 0.578 µM
Kd (HLA-A*02:12; [24]): 0.011 µM
Kd (HLA-B*39:01; [24]): ≥ 20 µM
Kd (HLA-A*02:01 [2]; [24]): 0.0048 µM
Kd (HLA-A*02:11 [3]; [24]): 0.00021 µM
Kd (HLA-A*02:16; [24]): 0.00151 µM

Sequence: GLYEFTILV
Kd (HLA-C*15:02; source organism: Mycobacterium tuberculosis C): ≥ 20 µM

Sequence: IALPVAWLF
Kd (HLA-A*02:19; [25]): ≥ 20 µM
Kd (HLA-A*02:12; [25]): ≥ 20 µM
Kd (HLA-B*39:01; [25]): ≥ 20 µM
Kd (HLA-B*15:01 [4]; [25]): ≥ 20 µM
Kd (HLA-B*27:03; [25]): ≥ 20 µM
Kd (HLA-A*02:03; [25]): ≥ 20 µM
Kd (HLA-A*02:01 [2]; [25]): ≥ 20 µM
Kd (HLA-A*68:02 [5]; [25]): ≥ 20 µM
Kd (HLA-B*46:01 [6]; [25]): ≥ 20 µM
Kd (HLA-B*57:01 [7]; [25]): 0.0624 µM
Kd (HLA-A*26:01; [25]): ≥ 20 µM
Kd (HLA-A*03:01 [8]; [25]): ≥ 20 µM
Kd (HLA-A*02:16; [25]): ≥ 20 µM

Sequence: ICSAVPVHW
Kd (HLA-B*15:17; [26]): 0.373 µM
Kd (HLA-B*57:01 [9]; [26]): 0.417 µM

Sequence: ILNTIQFMH
IC50 (HLA-A*11:01 [10]; [27]): 2.68 µM
IC50 (HLA-B*15:01 [11]; [27]): ≥ 111 µM
IC50 (HLA-A*02:01 [12]; [27]): 5.12 µM
IC50 (HLA-A*03:01 [13]; [27]): 3.36 µM

Sequence: ITAASLPKT
IC50 (HLA-A*11:01 [10]; [28]): 2.9 µM
IC50 (HLA-A*02:01 [12]; [28]): 4.9 µM
IC50 (HLA-A*03:01 [13]; [28]): 30.4 µM

Sequence: ITWPRTRHW
Kd (HLA-A*02:19; [29]): ≥ 20 µM
Kd (HLA-A*69:01 [1]; [29]): ≥ 20 µM
Kd (HLA-A*24:03): ≥ 20 µM
Kd (HLA-A*02:12; [29]): ≥ 20 µM
Kd (HLA-B*51:01): ≥ 20 µM
Kd (HLA-B*39:01; [29]): ≥ 20 µM
Kd (HLA-B*15:01 [4]; [29]): ≥ 20 µM
Kd (HLA-B*27:03; [29]): ≥ 20 µM
Kd (HLA-A*02:03; [29]): ≥ 20 µM
Kd (HLA-A*02:01 [2]; [29]): ≥ 20 µM
Kd (HLA-A*68:02 [5]; [29]): ≥ 20 µM
Kd (HLA-B*18:01 [14]): ≥ 20 µM
Kd (HLA-B*46:01 [6]; [29]): ≥ 20 µM
Kd (HLA-B*57:01 [7]; [29]): 0.033 µM
Kd (HLA-A*26:01; [29]): ≥ 20 µM
Kd (HLA-A*03:01 [8]; [29]): ≥ 20 µM
Kd (HLA-A*02:11 [3]; [29]): ≥ 20 µM
Kd (HLA-A*02:16; [29]): ≥ 20 µM

Sequence: KIFLHFSIL
Kd (HLA-C*15:02; source organism: Rickettsia sibirica 246): 0.919 µM

Sequence: KMIDGIGRF
Kd (HLA-B*15:01 [15]; source organism: H1N1 swine influenza virus (A/swine/Korea/S10/2004(H1N1))): 0.194 µM
Kd (HLA-C*15:02; source organism: Influenza A virus (A/81/HO)): ≥ 20 µM

Sequence: MAMPEYWQF
Kd (HLA-B*58:01; [30]): 0.0017 µM
Kd (HLA-B*15:17; [30]): 0.0088 µM
Kd (HLA-B*57:01 [9]; [30]): 0.0237 µM
Kd (HLA-C*15:02; source organism: Yersinia pestis Nepal516): ≥ 20 µM

Sequence: MQISTIGIR
IC50 (HLA-A*11:01 [10]; [31]): 2.56 µM
IC50 (HLA-B*15:01 [11]; [31]): 26.5 µM
IC50 (HLA-A*02:01 [12]; [31]): ≥ 117 µM
IC50 (HLA-A*03:01 [13]; [31]): ≥ 145 µM

Sequence: QGYSHGDIK
IC50 (HLA-A*11:01 [10]; [27]): 1.79 µM
IC50 (HLA-A*03:01 [13]; [27]): 12.1 µM

Sequence: RMWEFLDRL
Kd (HLA-A*69:01 [16]): 2.18 µM
Kd (HLA-A*02:11 [17]): ≤ 0.001 µM

Sequence: TIYTSGKRS
IC50 (HLA-A*03:01 [13]; [28]): 37.4 µM

Sequence: TVADVRHCL
Kd (HLA-C*15:02; source organism: Vaccinia virus Copenhagen): 0.495 µM

Sequence: VVFSTSDGK
IC50 (HLA-A*11:01 [10]; [28]): 1.03 µM
IC50 (HLA-A*02:01 [12]; [28]): ≥ 387 µM
IC50 (HLA-A*03:01 [13]; [28]): 4.54 µM

Kd (HLA-B*07:02): ≥ 20 µM
Kd (HLA-B*58:01; [32]): ≥ 20 µM
Kd (HLA-A*11:01 [18]): 2.24 µM
Kd (HLA-A*31:01): ≥ 20 µM
Kd (HLA-B*15:01 [15]; [32]): ≥ 20 µM
Kd (HLA-B*15:17; [32]): ≥ 20 µM
Kd (HLA-A*02:01 [19]): ≥ 20 µM
Kd (HLA-A*68:02 [20]): ≥ 20 µM
Kd (HLA-B*18:01 [21]): ≥ 20 µM
Kd (HLA-B*48:01): ≥ 20 µM
Kd (HLA-B*40:01): ≥ 20 µM
Kd (HLA-B*46:01 [22]): ≥ 20 µM
Kd (HLA-B*57:01 [9]; [32]): ≥ 20 µM
Kd (HLA-B*27:05): ≥ 20 µM
Kd (HLA-A*01:01): ≥ 20 µM
Kd (HLA-A*03:01 [23]): 1.63 µM
Sequence: WLSVIAFGK
